B1: unnamed (protein)
chain: MSKVDLWQDATAQAELVRSGEISRTELLEATIAHVQAVNPEINAVIIPLFEKARRESELASGPFAGVPYLLKDLTVVSQGDINTSSIKGMKESGYRADHDAYFVQRMRAAGFVLLGKTNTPEMGNQVTTEPEAWGATRNPWNLGRSVGGSSGGSGAAVAAALSPVAHGNDAAGSVRIPASVCGVVGLKPTRGRISPGPLVTDSDNVAGAAHEGLFARSVRDIAALLDVVSGHRPGDTFCAPTASRPYAQGISENPGSLRVGVLTHNPVGDFALDPECAAAARGAAAALAALGHDVNDAYPEALGDRSFLKDYSTIGDVAIAREIERNGELIGRPLTEDDVEWTSWEMVKRADQVTGRAFAACVDELRYYAGKVERWWEAGWDLLILPTVTRQTPEIGELMLAKGTDLEGRQSAFISGSLQMLAFTVPFNVSGQPAISLPIGMSSDGMPIGVQIVAAYGREDLLLQVAAQLEGALPWVARRPQLLNPSRKIPAA
B2: unnamed (protein)
chain: MSKVDLWQDATAQAELVRSGEISRTELLEATIAHVQAVNPEINAVIIPLFEKARRESELASGPFAGVPYLLKDLTVVSQGDINTSSIKGMKESGYRADHDAYFVQRMRAAGFVLLGKTNTPEMGNQVTTEPEAWGATRNPWNLGRSVGGSSGGSGAAVAAALSPVAHGNDAAGSVRIPASVCGVVGLKPTRGRISPGPLVTDSDNVAGAAHEGLFARSVRDIAALLDVVSGHRPGDTFCAPTASRPYAQGISENPGSLRVGVLTHNPVGDFALDPECAAAARGAAAALAALGHDVNDAYPEALGDRSFLKDYSTISDVAIAREIERNGELIGRPLTEDDVEWTSWEMVKRADQVTGRAFAACVDELRYYAGKVERWWEAGWDLLILPTVTRQTPEIGELMLAKGTDLEGRQSAFISGSLQMLAFTVPFNVSGQPAISLPIGMSSDGMPIGVQIVAAYGREDLLLQVAAQLEGALPWVARRPQLLNPSRKIPAA
B3: unnamed (protein)
chain: MSKVDLWQDATAQAELVRSGEISRTELLEATIAHVQAVNPEINAVIIPLFEKARRESELASGPFAGVPYLLKDLTVVSQGDINTSSIKGMKESGYRADHDAYFVQRMRAAGFVLLGKTNTPEMGNQVTTEPEAWGATRNPWNLGRSVGGSSGGSGAAVAAALSPVAHGNDAAGSVRIPASVCGVVGLKPTRGRISPGPLVTDSDNVAGAAHEGLFARSVRDIAALLDVVSGHRPGDTFCAPTASRPYAQGISENPGSLRVGVLTHNPVGDFALDPECAAAARGAAAALAALGHDVNDAYPEALGDRSFLKDYSTIADVAIAREIERNGELIGRPLTEDDVEWTSWEMVKRADQVTGRAFAACVDELRYYAGKVERWWEAGWDLLILPTVTRQTPEIGELMLAKGTDLEGRQSAFISGSLQMLAFTVPFNVSGQPAISLPIGMSSDGMPIGVQIVAAYGREDLLLQVAAQLEGALPWVARRPQLLNPSRKIPAA
B4: unnamed (protein)
chain: MSKVDLWQDATAQAELVRSGEISRTELLEATIAHVQAVNPEINAVIIPLFEKARRESELASGPFAGVPYLLKDLTVVSQGDINTSSIKGMKESGYRADHDAYFVQRMRAAGFVLLGKTNTPEMGNQVTTEPEAWGATRNPWNLGRSVGGSSGGSGAAVAAALSPVAHGNDAAGSVRIPASVCGVVGLKPTRGRISPGPLVTDSDNVAGAAHEGLFARSVRDIAALLDVVSGHRPGDTFCAPTASRPYAQGISENPGSLRVGVLTHNPVGDFALDPECAAAARGAAAALAALGHDVNDAYPEALGDRSFLKDYSTIDDVAIAREIERNGELIGRPLTEDDVEWTSWEMVKRADQVTGRAFAACVDELRYYAGKVERWWEAGWDLLILPTVTRQTPEIGELMLAKGTDLEGRQSAFISGSLQMLAFTVPFNVSGQPAISLPIGMSSDGMPIGVQIVAAYGREDLLLQVAAQLEGALPWVARRPQLLNPSRKIPAA
B5: unnamed (protein)
chain: MSKVDLWQDATAQAELVRSGEISRTELLEATIAHVQAVNPEINAVIIPLFEKARRESELASGPFAGVPYLLKDLTVVSQGDINTSSIKGMKESGYRADHDAYFVQRMRAAGFVLLGKTNTPEMGAQVTTEPEAWGATRNPWNLGRSVGGSSGGSGAAVAAALSPVAHGNDAAGSVRIPASVCGVVGLKPTRGRISPGPLVTDSDNVAGAAHEGLFARSVRDIAALLDVVSGHRPGDTFCAPTASRPYAQGISENPGSLRVGVLTHNPVGDFALDPECAAAARGAAAALAALGHDVNDAYPEALGDRSFLKDYSTICDVAIAREIERNGELIGRPLTEDDVEWTSWEMVKRADQVTGRAFAACVDELRYYAGKVERWWEAGWDLLILPTVTRQTPEIGELMLAKGTDLEGRQSAFISGSLQMLAFTVPFNVSGQPAISLPIGMSSDGMPIGVQIVAAYGREDLLLQVAAQLEGALPWVARRPQLLNPSRKIPAA
B6: unnamed (protein)
chain: MSKVDLWQDATAQAELVRSGEISRTELLEATIAHVQAVNPEINAVIIPLFEKARRESELASGPFAGVPYLLKDLTVVSQGDINTSSIKGMKESGYRADHDAYFVQRMRAAGFVLLGKTNTPEMGNQVTTEPEAWGATRNPWNLGRSVGGSSGGSGAAVAAALSPVAHGNDAAGSVRIPASVCGVVGLKPTRGRISPGPLVTDSDNVAGAAHEGLFARSVRDIAALLDVVSGHRPGDTFCAPTASRPYAQGISENPGSLRVGVLTHNPVGDFALDPECAAAARGAAAALAALGHDVNDAYPEALGDRSFLKDYSTICDVAIAREIERNGELIGRPLTEDDVEWTSWEMVKRADQVTGRAFAACVDELRYYAGKVERWWEAGWDLLILPTVTRQTPEIGELMLAKGTDLEGRQSAFISGSLQMLAFTVPFNVSGQPAISLPIGMSSDGMPIGVQIVAAYGREDLLLQVAAQLEGALPWVARRPQLLNPSRKIPAA

Substrate: Acd (paper fig)
Settings: 30 °C

| Protein | Km | kcat | kcat/Km |
| --- | --- | --- | --- |
| B1 | 3.66 mM | 9.15 s⁻¹ | 2500 M⁻¹ s⁻¹ |
| B2 | 1.8 mM | 4.83 s⁻¹ | 2680 M⁻¹ s⁻¹ |
| B3 | 0.85 mM | 0.71 s⁻¹ | 835 M⁻¹ s⁻¹ |
| B4 | 19 mM | 0.14 s⁻¹ | 7.37 M⁻¹ s⁻¹ |
| B5 | 13.2 mM | 1.12 s⁻¹ | 84.8 M⁻¹ s⁻¹ |
| B6 | 3.51 mM | 4.97 s⁻¹ | 1420 M⁻¹ s⁻¹ |

Reference: the PETadex activity labels (doi:10.1074/jbc.m109.041285)
